# B1: Ab133 (antibody, human IgG4 S228P, kappa, V domains shown)
# VH: EVQLVESGGGLVQPGGSLRLSCAASGFTFSSYGMSWVRQAPGKGLELVASFTGSGGAYYPDSVKGRFTISRDNAKNSLYLQMNSLRAEDTAVYYCARDLLIRFLEWSHYYGMDVWGQGTTVTVSS
# VL: DIVMTQSPLSLPVTPGEPASISCRSSQSLLHSSGHNFLHWYLQKPGQSPQLLIYEVSNRVSGVPDRFSGSGSGTDFTLKISRVEAEDVGVYYCQQQTQYPGTFGGGTKVEIKR
# notes: human IgG4 in the EM experiment; also called Ab133 Human IgG4
# B2: Ab106 (antibody, human IgG4 S228P, kappa, V domains shown)
# VH: EVQLVESGGGLVQPGGSLRLSCAASGSAFSSYGMSWVRQAPGKGLELVASINSNGGSTYYPDSVKGRFTISRDNAKNSLYLQMNSLRAEDTAVYYCARDLLVRFLEWAGYYGMDVWGQGTTVTVSS
# VL: DIVMTQSPLSLPVTPGEPASISCRSSQSLLHSSGHNFLHWYLQKPGQSPQLLIYEVSNRVSGVPDRFSGSGSGTDFTLKISRVEAEDVGVYYCMQQTQYPPTFGGGTKVEIKR
# B3: Ab135 (antibody, human IgG4 S228P, kappa, V domains shown)
# VH: EVQLVESGGGLVQPGGSLRLSCAASGSAFSSYGMSWVRQAPGKGLELVASINSNGGSTYYPDSVKGRFTISRDNAKNSLYLQMNSLRAEDTAVYYCARDLLVTFLRWSHYYGMDVWGQGTTVTVSS
# VL: DIVMTQSPLSLPVTPGEPASISCRSSQSLLHSSGHNFLHWYLQKPGQSPQLLIYEVSNRVSGVPDRFSGSGSGTDFTLKISRVEAEDVGVYYCMQQTQYPPTFGGGTKVEIKR
# B4: Ab130 (antibody, human IgG4 S228P, kappa, V domains shown)
# VH: EVQLVESGGGLVQPGGSLRLSCAASGFTFTSYGMSWVRQAPGKGLELVASITGSGGETYYPDSVKGRFTISRDNAKNSLYLQMNSLRAEDTAVYYCARDLLVRFLEWSHYYGMDVWGQGTTVTVSS
# VL: DIVMTQSPLSLPVTPGEPASISCRSSQSLLHSSGHNFLHWYLQKPGQSPQLLIYETSNRAPGIPDRFSGSGSGTDFTLKISRVEAEDVGVYYCQQATQFPRPFGGGTKVEIKR
# B5: Ab125 (antibody, human IgG4 S228P, kappa, V domains shown)
# VH: EVQLVQSGAEVKKPGESLKISCKGSGNRISDYWMNWVRQVPGKGLEWMGNIYPGYSDATYNRKFKGQVTISADKSISTAYLQWSSLKASDTAIYYCARGRDGYNYFAAFDIWGQGTMVTVSS
# VL: EIVLTQSPATLSLSPGERATLSCRASQSVASSYLAWYQQKPGQAPRLLIYDTSSRAAGIPARFSGSGSGTDFTLTISSLEPEDFAVYYCHQYGSSLTTFGGGTKVEIKR
# B6: Ab110 (antibody, human IgG4 S228P, kappa, V domains shown)
# VH: QVQLVQSGAEVKKPGASVKVSCKVSEYTFTNYDIHWVRQAPGKGLEWMGGISAYHGNAIYAQKFQGRVTMTEDTSTDTAYMELSSLKSEDTAVYYCARDRVRRDYYNFGMDVWGQGTTVTVSS
# VL: DIQMTQSPSSVSASVGDRVTITCRASEDITSYLAWYQQKPGKAPKLLIYDVSSLQSGVPSRFSGSGSGTDFTLTISSLQPEDFANYYCLQHNAYPYGFGGGTKVEIKR
# B7: Ab116 (antibody, human IgG4 S228P, kappa, V domains shown)
# VH: QVQLVQSGAEVKKPGASVKVSCKVSGFTFSRPAIHWVRQAPGKGLEWMGGINPNAATTIYAQKFQGRVTMTEDTSTDTAYMELSSLKSEDTAVYYCARGRLLREWELRPYDTWGQGTLVTVSS
# VL: DIQMTQSPSSVSASVGDRVTITCRASQSIGKSLAWYQQKPGKAPKLLIYSASNLRSGVPSRFSGSGSGTDFTLTISSLQPEDFANYYCQQYRDVPPITFGGGTKVEIKR
# B8: Ab117 (antibody, human IgG4 S228P, kappa, V domains shown)
# VH: QVQLVQSGAEVKKPGASVKVSCKVSGGTFSSHDIHWVRQAPGKGLEWMGGINPSDASTIYAQKFQGRVTMTEDTSTDTAYMELSSLKSEDTAVYYCARDLRGYSYGAETWHFQHWGQGTLVTVSS
# VL: DIQMTQSPSSVSASVGDRVTITCRASQYISNYLAWYQQKPGKAPKLLIYETSRLESGVPSRFSGSGSGTDFTLTISSLQPEDFANYYCQQTSSTPLTFGGGTKVEIKR
# B9: Ab119 (antibody, human IgG4 S228P, kappa, V domains shown)
# VH: QVQLVQSGAEVKKPGASVKVSCKVSGYTFTKDHIHWVRQAPGKGLEWMGGITPSSGDTIYAQKFQGRVTMTEDTSTDTAYMELSSLKSEDTAVYYCARDHMVRGLPNYYYGMDLWGQGTTVTVSS
# VL: DIQMTQSPSSVSASVGDRVTITCRASRDIANYLAWYQQKPGKAPKLLIYAASILQNGVPSRFSGSGSGTDFTLTISSLQPEDFANYYCQQAYTTPPTFGGGTKVEIKR
# B10: Ab126 (antibody, human IgG4 S228P, kappa, V domains shown)
# VH: EVQLVESGGGLVQPGGSLRLSCTASSFTFSNYAMDWVRQAPGKGLEWVSYISSDASTTYYADSVKGRFTISRDNAKNTLYLQMNSLRAEDTAVYYCARDGGYNPGIFDYWGQGTLVTVSS
# VL: DIQMTQSPSSLSASVGDRVTITCQASQSIGRWLNWYQQKPGKAPKLLIYDASILQTGVPSRFSGSGSGTDFTFTISSLQPEDIATYYCQQSFTTPPLTFGGGTKVEIKR
# Assays:
# [1] = target: T1, recombinant human latent myostatin (human, UniProt O14793 24-375, biotinylated (in the Octet pH assay only)); assay: cell-based or functional assay
# [2] = target: T1, recombinant human latent myostatin; assay: cell-based or functional assay; remark: listed apart in the source
# [3] = target: T1, recombinant human latent myostatin; assay: cell-based or functional assay; remark: listed apart in the source
# murine pro-myostatin [4] = target: T2, murine pro-myostatin (mouse, UniProt O08689 25-376, biotinylated (in the SPR assay)); assay: SPR Biacore 8K, biotin-antigen captured
# T2 construct: also called proGDF8 (mouse); mouse pro-myostatin
# human pro-myostatin [5] = target: T3, human pro-myostatin (human, UniProt O14793 24-375, biotinylated (in the SPR assay)); assay: SPR Biacore 8K, biotin-antigen captured
# T3 construct: Disulfide-linked homodimer; also called proGDF8 (human)
# cyno pro-myostatin [6] = target: T4, cyno pro-myostatin (cynomolgus monkey, Biotinylated for capture in the SPR assay (site not stated). The native form is a disulfide-linked homodimer, partly furin-cleaved; one chain is given.); assay: SPR Biacore 8K, biotin-antigen captured
# T4 construct: also called proGDF8 (cynomolgus); cynomolgus monkey pro-myostatin
# human pro-myostatin [7] = target: T3, human pro-myostatin; assay: Ab KD, summary Table 11; method and antigen not stated there
# [8] = target: T1, recombinant human latent myostatin; assay: BLI Octet Red384, biotin human latent myostatin on streptavidin tips
# Protocol: Binding was performed at pH 7.4 and dissociation at pH 5.5 in an Octet Red384@assay. Streptavidin biosensors were baselined in 1x kinetics buffer (KB) (Sartorius) for one minute, then loaded with 100 nM biotinylated human latent myostatin for five minutes, followed by another baseline step of one minute in 1x KB. Binding of test antibodies was performed for five minutes and then dissociation was performed in PBS at either pH 7.4 or pH 5.5 for five minutes. Analysis was performed using a partial fit, in which full dissociation was projected. Kd at pH 5.5 was divided by Kd at pH 7.4 to calculate pH sensitivity.
# human pro-myostatin [9] = target: T3, human pro-myostatin; assay: cell-based or functional assay
# cyno pro-myostatin [10] = target: T4, cyno pro-myostatin; assay: plate binding assay, absorbance at 450 nm, antibody titrated 100 to about 0.002 nM, panel 'Cyno Pure Pro-GDF-8' (method not described in the text)
# human pro-myostatin [11] = target: T3, human pro-myostatin; assay: plate binding assay, absorbance at 450 nm, antibody titrated 100 to about 0.002 nM, panel 'Human Pure Pro-GDF-8' (method not described in the text)
# human GDF-11 = human GDF-11 (human, UniProt O95390 299-407, limits assumed); assay: plate binding assay, OD 450 nm, one antibody concentration that is not given, on Hu-GDF-11 (method not described in the text)
# murine pro-myostatin [12] = target: T2, murine pro-myostatin; assay: plate binding assay, OD 450 nm, antibody titrated 0.0003 to 100 nM, panel 'Mu-Pro-GDF-8 Plate 3' (method not described in the text)
# mouse GDF-11 = mouse GDF-11 (mouse, UniProt Q9Z1W4 297-405, limits assumed); assay: plate binding assay, OD 450 nm, one antibody concentration that is not given, on Mu-GDF-11 (method not described in the text)
# human pro-myostatin [13] = target: T3, human pro-myostatin; assay: plate binding assay, OD 450 nm, antibody titrated 0.0003 to 100 nM, panel 'Hu-Pro-GDF-8 Plate 1' (method not described in the text)
# human pro-myostatin [14] = target: T3, human pro-myostatin; assay: plate binding assay, OD 450 nm, antibody titrated 0.0003 to 100 nM, panel 'Hu-Pro-GDF-8 Plate 2' (method not described in the text)
# murine pro-myostatin [15] = target: T2, murine pro-myostatin; assay: plate binding assay, OD 450 nm, antibody titrated 0.0003 to 100 nM, panel 'Mu-Pro-GDF-8 Plate 2' (method not described in the text)
# human pro-myostatin [16] = target: T3, human pro-myostatin; assay: plate binding assay, OD 450 nm, antibody titrated 0.0003 to 100 nM, panel 'Hu-Pro-GDF-8 Plate 3' (method not described in the text)
# Sequence of mouse GDF-11 (Q9Z1W4 297-405 limits assumed): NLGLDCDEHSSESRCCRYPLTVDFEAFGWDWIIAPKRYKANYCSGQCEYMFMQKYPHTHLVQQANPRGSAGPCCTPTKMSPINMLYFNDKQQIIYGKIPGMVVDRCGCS
# Sequence of human GDF-11 (O95390 299-407 limits assumed): as the sequence (Q9Z1W4 297-405 limits assumed) above
binder,measurement,setting,value
B1,"IC50 of inhibition of myostatin activation by mTLL-2 (functional ELISA, FIG. 1B)",[1],0.16 nM
same,mTLL2 IC50,[2],0.161 nM
same,IC50 (nM) Latent + mTLL2,[3],0.161 nM
same,Kd,murine pro-myostatin [4],0.054 nM
same,koff,murine pro-myostatin [4],0.000162 s⁻¹
same,kon,murine pro-myostatin [4],3.01e+06 M⁻¹ s⁻¹
same,Kd,human pro-myostatin [5],0.041 nM
same,koff,human pro-myostatin [5],0.000116 s⁻¹
same,kon,human pro-myostatin [5],2.84e+06 M⁻¹ s⁻¹
same,Kd,cyno pro-myostatin [6],0.0383 nM
same,koff,cyno pro-myostatin [6],0.000109 s⁻¹
same,kon,cyno pro-myostatin [6],2.86e+06 M⁻¹ s⁻¹
same,Kd,human pro-myostatin [7],0.041 nM
same,fold difference in off-rate (Kd at pH 5.5 / Kd at pH 7.4),[8],17.5 fold
B2,IC50 (nM) Latent + mTLL2,[3],0.163 nM
same,IC50 (nM) Pro + Furin,human pro-myostatin [9],0.233 nM
same,Kd,murine pro-myostatin [4],0.162 nM
same,koff,murine pro-myostatin [4],0.000317 s⁻¹
same,kon,murine pro-myostatin [4],1.96e+06 M⁻¹ s⁻¹
same,Kd,human pro-myostatin [5],0.112 nM
same,koff,human pro-myostatin [5],0.000224 s⁻¹
same,kon,human pro-myostatin [5],2e+06 M⁻¹ s⁻¹
same,Kd,cyno pro-myostatin [6],0.152 nM
same,koff,cyno pro-myostatin [6],0.000291 s⁻¹
same,kon,cyno pro-myostatin [6],1.91e+06 M⁻¹ s⁻¹
same,EC50 (read off the curve),cyno pro-myostatin [10],~0.2 nM
same,EC50 (read off the curve),human pro-myostatin [11],~0.2 nM
B3,IC50 (nM) Latent + mTLL2,[3],0.154 nM
same,EC50 (read off the curve),cyno pro-myostatin [10],~0.3 nM
B4,"IC50 of inhibition of myostatin activation by mTLL-2 (functional ELISA, FIG. 1A)",[1],0.31 nM
same,"IC50 of inhibition of myostatin activation by mTLL-2 (functional ELISA, FIG. 1B)",[1],0.3 nM
same,mTLL2 IC50,[2],0.33 nM
same,Kd,human pro-myostatin [7],0.35 nM
same,fold difference in off-rate (Kd at pH 5.5 / Kd at pH 7.4),[8],10.6 fold
B5,IC50 (nM) Latent + mTLL2,[3],0.202 nM
same,Kd,murine pro-myostatin [4],0.125 nM
same,koff,murine pro-myostatin [4],0.000411 s⁻¹
same,kon,murine pro-myostatin [4],3.29e+06 M⁻¹ s⁻¹
same,binding result,human GDF-11,no binding
same,EC50 (read off the curve),murine pro-myostatin [12],~0.2 nM
same,binding result,mouse GDF-11,no binding
B6,EC50 (read off the curve),human pro-myostatin [13],~0.5 nM
B7,EC50 (read off the curve),human pro-myostatin [14],~1 nM
same,EC50 (read off the curve),murine pro-myostatin [15],~1 nM
same,binding result,human GDF-11,no binding
same,binding result,mouse GDF-11,no binding
B8,binding result,human pro-myostatin [14],binds
same,binding result,murine pro-myostatin [15],binds
same,binding result,human GDF-11,no binding
same,binding result,mouse GDF-11,no binding
B9,binding result,human pro-myostatin [14],binds
same,binding result,murine pro-myostatin [15],binds
same,binding result,human GDF-11,no binding
same,binding result,mouse GDF-11,no binding
B10,binding result,human GDF-11,no binding
same,binding result,murine pro-myostatin [12],binds
same,binding result,mouse GDF-11,no binding
same,binding result,human pro-myostatin [16],binds

# From patent publication US20260209325A1 (SCHOLAR ROCK, published 2026)
